{
  "source": "patent US20040092720A1",
  "about": "(US Dept. of Health and Human Services, published 2004)",
  "binders": {"B1": {"name": "Peptide E45 (peptide)", "peptide": "VEWTTPRESVKKYILEWCVLSDKA"}, "B2": {"name": "Peptide E39 (peptide)", "peptide": "TVNATKLTVNLTNDRYLATLTVRN"}, "B3": {"name": "Peptide E26 (peptide)", "peptide": "SVIILKYNIQYRTKDASTWSQIPP"}, "B4": {"name": "Peptide E74 (peptide)", "peptide": "SSCMSSSRPSISSSDENESSQNTS"}, "B5": {"name": "Peptide E71 (peptide)", "peptide": "KKPFPEDLKSLDLFKKEKINTEGH"}, "B6": {"name": "Peptide E35 (peptide)", "peptide": "TQGYRTVQLVWKTLPPFEANGKIL"}, "B7": {"name": "Peptide E48 (peptide)", "peptide": "QQEDGTVHRTYLRGNLAESKCYLI"}, "B8": {"name": "Peptide E70 (peptide)", "peptide": "VSVVEIEANDKKPFPEDLKSLDLF"}, "B9": {"name": "Peptide E18 (peptide)", "peptide": "DCKAKRDTPTSCTVDYSTVYFVNI"}, "B10": {"name": "Peptide E24 (peptide)", "peptide": "INSEELSSILKLTWTNPSIKSVII"}, "B11": {"name": "Peptide E63 (peptide)", "peptide": "IVVPVCLAFLLTTLLGVLFCFNKR"}, "B12": {"name": "Peptide E20 (peptide)", "peptide": "FVNIEVWVEAENALGKVTSDHINF"}, "B13": {"name": "Peptide E72 (peptide)", "peptide": "LDLFKKEKINTEGHSSGIGGSSCM"}, "B14": {"name": "Peptide E66 (peptide)", "peptide": "IWPNVPDPSKSHIAQWSPHTPPRH"}, "B15": {"name": "Peptide E28 (peptide)", "peptide": "QIPPEDTASTRSSFTVQDLKPFTE"}, "B16": {"name": "Peptide E33 (peptide)", "peptide": "TYEDRPSKAPSFWYKIDPSHTQGY"}, "B17": {"name": "Peptide E13 (peptide)", "peptide": "ISGLPPEKPKNLSCIVNEGKKMRC"}, "B18": {"name": "Peptide E27 (peptide)", "peptide": "YRTKDASTWSQIPPEDTASTRSSF"}, "B19": {"name": "Peptide E42 (peptide)", "peptide": "AAVLTIPACDFQATHPVMDLKAFP"}, "B20": {"name": "Peptide E44 (peptide)", "peptide": "KAFPKDNMLWVEWTTPRESVKKYI"}, "B21": {"name": "Peptide E51 (peptide)", "peptide": "ADGPGSPESIKAYLKQAPPSKGPT"}, "B22": {"name": "Peptide E9 (peptide)", "peptide": "IINRTASSVTFTDIASLNIQLTCN"}, "B23": {"name": "Peptide E56 (peptide)", "peptide": "IRNYTIFYRTIIGNETAVNVDSSH"}, "B24": {"name": "Peptide E75 (peptide)", "peptide": "ISSSDENESSQNTSSTVQYSTVVH"}, "B25": {"name": "Peptide E73 (peptide)", "peptide": "TEGHSSGIGGSSCMSSSRPSISSS"}, "B26": {"name": "Peptide E38 (peptide)", "peptide": "TRWKSHLQNYTVNATKLTVNLTND"}, "B27": {"name": "Peptide E55 (peptide)", "peptide": "QLPVDVQNGFIRNYTIFYRTIIGN"}, "B28": {"name": "Peptide E14 (peptide)", "peptide": "NLSCIVNEGKKMRCEWDGGRETHL"}, "B29": {"name": "Peptide E49 (peptide)", "peptide": "YLRGNLAESKCYLITVTPVYADGP"}, "B30": {"name": "Peptide E46 (peptide)", "peptide": "KKYILEWCVLSDKAPCITDWQQED"}, "B31": {"name": "Peptide E58 (peptide)", "peptide": "DSSHTEYTLSSLTSDTLYMVRMAA"}, "B32": {"name": "Peptide E31 (peptide)", "peptide": "CMKEDGKGYWSDWSEEASGITYED"}, "B33": {"name": "Peptide E53 (peptide)", "peptide": "KGPTVRTKKVGKNEAVLEWDQLPV"}, "B34": {"name": "Peptide E36 (peptide)", "peptide": "WKTLPPFEANGKILDYEVTLTRWK"}, "B35": {"name": "Peptide E54 (peptide)", "peptide": "GKNEAVLEWDQLPVDVQNGFIRNY"}, "B36": {"name": "Peptide E43 (peptide)", "peptide": "FQATHPVMDLKAFPKDNMLWVEWT"}, "B37": {"name": "Peptide E16 (peptide)", "peptide": "ETHLETNFTLKSEWATHKFADCKA"}, "B38": {"name": "Peptide E17 (peptide)", "peptide": "KSEWATHKFADCKAKRDTPTSCTV"}, "B39": {"name": "Peptide E23 (peptide)", "peptide": "KPNPPHNLSVINSEELSSILKLTW"}, "B40": {"name": "Peptide E64 (peptide)", "peptide": "LTTLLGVLFCFNKRDLIKKHIWPN"}, "B41": {"name": "Peptide E8 (peptide)", "peptide": "HFTIPKEQYTIINRTASSVTFTDI"}, "B42": {"name": "Peptide E32 (peptide)", "peptide": "SDWSEEASGITYEDRPSKAPSFWY"}, "B43": {"name": "Peptide E12 (peptide)", "peptide": "LEQNVYGITIISGLPPEKPKNLSC"}, "B44": {"name": "Peptide E41 (peptide)", "peptide": "TVRNLVGKSDAAVLTIPACDFQAT"}, "B45": {"name": "Peptide E65 (peptide)", "peptide": "FNKRDLIKKHIWPNVPDPSKSHIA"}, "B46": {"name": "Peptide E37 (peptide)", "peptide": "GKILDYEVTLTRWKSHLQNYTVNA"}, "B47": {"name": "Peptide E21 (peptide)", "peptide": "ENALGKVTSDHINFDPVYKVKPNP"}, "B48": {"name": "Peptide E60 (peptide)", "peptide": "RMAAYTDEGGKDGPEFTFTTPKFA"}, "B49": {"name": "Peptide E19 (peptide)", "peptide": "SCTVDYSTVYFVNIEVWVEAENAL"}, "B50": {"name": "Peptide E61 (peptide)", "peptide": "KDGPEFTFTTPKFAQGEIEAIVVP"}, "B51": {"name": "Peptide E57 (peptide)", "peptide": "IIGNETAVNVDSSHTEYTLSSLTS"}, "B52": {"name": "Peptide E67 (peptide)", "peptide": "SHIAQWSPHTPPRHNFNSKDQMYS"}, "B53": {"name": "Peptide E69 (peptide)", "peptide": "QMYSDGNFTDVSVVEIEANDKKPF"}, "B54": {"name": "Peptide E40 (peptide)", "peptide": "LTNDRYLATLTVRNLVGKSDAAVL"}, "B55": {"name": "Peptide E10 (peptide)", "peptide": "FTDIASLNIQLTCNILTFGQLEQN"}, "B56": {"name": "Peptide E15 (peptide)", "peptide": "KMRCEWDGGRETHLETNFTLKSEW"}, "B57": {"name": "Peptide E50 (peptide)", "peptide": "CYLITVTPVYADGPGSPESIKAYL"}, "B58": {"name": "Peptide E62 (peptide)", "peptide": "PKFAQGEIEAIVVPVCLAFLLTTL"}, "B59": {"name": "Peptide E30 (peptide)", "peptide": "PFTEYVFRIRCMKEDGKGYWSDWS"}, "B60": {"name": "Peptide E68 (peptide)", "peptide": "PPRHNFNSKDQMYSDGNFTDVSVV"}, "B61": {"name": "Peptide E52 (peptide)", "peptide": "KAYLKQAPPSKGPTVRTKKVGKNE"}, "B62": {"name": "Peptide E25 (peptide)", "peptide": "KLTWTNPSIKSVIILKYNIQYRTK"}, "B63": {"name": "Peptide E29 (peptide)", "peptide": "RSSFTVQDLKPFTEYVFRIRCMKE"}, "B64": {"name": "Peptide E22 (peptide)", "peptide": "HINFDPVYKVKPNPPHNLSVINSE"}, "B65": {"name": "Peptide E34 (peptide)", "peptide": "SFWYKIDPSHTQGYRTVQLVWKTL"}},
  "data": [
    {"biological_target": "T1, recombinant human IL-6 (human, UniProt P05231 30-212, labeled with radioactive iodine)", "T1 construct": "Labeled probe in solution, added to wells that carry the synthetic peptides; also called IL-6 ligand; Interleukin-6", "assay": "radioiodinated IL-6 on peptide array", "units": {"Counts/minute bound": "counts/minute"}, "values": [
      {"binder": "B1", "Counts/minute bound": 1390},
      {"binder": "B2", "Counts/minute bound": 4360},
      {"binder": "B3", "Counts/minute bound": 2830},
      {"binder": "B4", "Counts/minute bound": 1130},
      {"binder": "B5", "Counts/minute bound": 2690},
      {"binder": "B6", "Counts/minute bound": 1170},
      {"binder": "B7", "Counts/minute bound": 1080},
      {"binder": "B8", "Counts/minute bound": 1300},
      {"binder": "B9", "Counts/minute bound": 1550},
      {"binder": "B10", "Counts/minute bound": 1010},
      {"binder": "B11", "Counts/minute bound": 4520},
      {"binder": "B12", "Counts/minute bound": 1410},
      {"binder": "B13", "Counts/minute bound": 1440},
      {"binder": "B14", "Counts/minute bound": 1200},
      {"binder": "B15", "Counts/minute bound": 1200},
      {"binder": "B16", "Counts/minute bound": 1220},
      {"binder": "B17", "Counts/minute bound": 1200},
      {"binder": "B18", "Counts/minute bound": 1160},
      {"binder": "B19", "Counts/minute bound": 1120},
      {"binder": "B20", "Counts/minute bound": 1180},
      {"binder": "B21", "Counts/minute bound": 1190},
      {"binder": "B22", "Counts/minute bound": 1630},
      {"binder": "B23", "Counts/minute bound": 1640},
      {"binder": "B24", "Counts/minute bound": 1120},
      {"binder": "B25", "Counts/minute bound": 1060},
      {"binder": "B26", "Counts/minute bound": 3650},
      {"binder": "B27", "Counts/minute bound": 4360},
      {"binder": "B28", "Counts/minute bound": 1170},
      {"binder": "B29", "Counts/minute bound": 1540},
      {"binder": "B30", "Counts/minute bound": 1710},
      {"binder": "B31", "Counts/minute bound": 1350},
      {"binder": "B32", "Counts/minute bound": 1730},
      {"binder": "B33", "Counts/minute bound": 1640},
      {"binder": "B34", "Counts/minute bound": 1460},
      {"binder": "B35", "Counts/minute bound": 1310},
      {"binder": "B36", "Counts/minute bound": 1300},
      {"binder": "B37", "Counts/minute bound": 1040},
      {"binder": "B38", "Counts/minute bound": 1410},
      {"binder": "B39", "Counts/minute bound": 1410},
      {"binder": "B40", "Counts/minute bound": 4500},
      {"binder": "B41", "Counts/minute bound": 1140},
      {"binder": "B42", "Counts/minute bound": 1160},
      {"binder": "B43", "Counts/minute bound": 1670},
      {"binder": "B44", "Counts/minute bound": 1100},
      {"binder": "B45", "Counts/minute bound": 5740},
      {"binder": "B46", "Counts/minute bound": 1790},
      {"binder": "B47", "Counts/minute bound": 1120},
      {"binder": "B48", "Counts/minute bound": 1450},
      {"binder": "B49", "Counts/minute bound": 3320},
      {"binder": "B50", "Counts/minute bound": 1390},
      {"binder": "B51", "Counts/minute bound": 1230},
      {"binder": "B52", "Counts/minute bound": 1200},
      {"binder": "B53", "Counts/minute bound": 1190},
      {"binder": "B54", "Counts/minute bound": 4800},
      {"binder": "B55", "Counts/minute bound": 3380},
      {"binder": "B56", "Counts/minute bound": 1570},
      {"binder": "B57", "Counts/minute bound": 1260},
      {"binder": "B58", "Counts/minute bound": 2790},
      {"binder": "B59", "Counts/minute bound": 1260},
      {"binder": "B60", "Counts/minute bound": 1230},
      {"binder": "B61", "Counts/minute bound": 1820},
      {"binder": "B62", "Counts/minute bound": 10300},
      {"binder": "B63", "Counts/minute bound": 1320},
      {"binder": "B64", "Counts/minute bound": 1730},
      {"binder": "B65", "Counts/minute bound": 1140}
    ]}
  ]
}
